Read-outs that look alike come from different tables or passages of the source.
Experiments:
TNFR1 [1] = biological target: T1, TNFR1; test: SPR (BIAcore), TNFR1 on CM-5 chip, peptide injected
T1 chain: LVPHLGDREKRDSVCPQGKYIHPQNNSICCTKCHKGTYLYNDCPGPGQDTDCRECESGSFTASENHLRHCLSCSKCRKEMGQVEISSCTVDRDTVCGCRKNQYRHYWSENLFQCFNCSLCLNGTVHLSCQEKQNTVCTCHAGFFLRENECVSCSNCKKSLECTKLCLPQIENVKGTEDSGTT

TNFR1 [2] = biological target: T1, TNFR1
TNFR1 [3] = biological target: T1, TNFR1
TNFR1 [4] = biological target: T1, TNFR1

B1: selective TNFR1 antagonist peptide Hydrostatin-SN10 (peptide)
peptide: DEQHLETELH
modifications: not checked
Kd (TNFR1 [1]): 2800 nM
Kd (TNFR1 [2]): 2830 nM
Kd (TNFR1 [3]): 2780 nM
Kd (TNFR1 [4]): 2800 nM

From patent US20200277355A1
